Assay results published in the supplement of paper PMC9112550, “Optimization of the antimicrobial peptide Bac7 by deep mutational scanning” (BMC Biology, 2022).

System: Escherichia coli TOP10
Assay: shrunken log2 fold change of peptide-encoding DNA abundance (4.5 h post-induction vs induction); higher = less antimicrobial activity (less host growth inhibition)
Conditions: time post-induction: 4.5 h; library: site-saturation at positions 5, 18, 19, 20
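Further: peptides expressed intracellularly from a pBAD plasmid library in pooled LB shake-flask culture, induced with 0.3% L-arabinose, DNA abundance read by NGS, three biological replicates, DESeq2 with apeglm shrinkage.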

| Sequence | shrunken log2 fold change |
| --- | --- |
| RRIRFRPPRLPRPRPRPSVLPRP | -0.246 |
| RRIRFRPPRLPRPRPRPSWAPRP | -0.308 |
| RRIRFRPPRLPRPRPRPSWKPRP | 0.206 |
| RRIRFRPPRLPRPRPRPSYPPRP | -0.161 |
| RRIRFRPPRLPRPRPRPSYVPRP | -0.501 |
| RRIRFRPPRLPRPRPRPTAAPRP | 0.569 |
| RRIRFRPPRLPRPRPRPTARPRP | 0.336 |
| RRIRFRPPRLPRPRPRPTATPRP | 0.355 |
| RRIRFRPPRLPRPRPRPTCCPRP | -0.0828 |
| RRIRFRPPRLPRPRPRPTDCPRP | -0.0151 |
| RRIRFRPPRLPRPRPRPTDEPRP | 0.00361 |
| RRIRFRPPRLPRPRPRPTEFPRP | -0.217 |
| RRIRFRPPRLPRPRPRPTETPRP | -0.0161 |
| RRIRFRPPRLPRPRPRPTGDPRP | 0.127 |
| RRIRFRPPRLPRPRPRPTGNPRP | -0.245 |
| RRIRFRPPRLPRPRPRPTGVPRP | 0.123 |
| RRIRFRPPRLPRPRPRPTIDPRP | 0.103 |
| RRIRFRPPRLPRPRPRPTIIPRP | -0.66 |
| RRIRFRPPRLPRPRPRPTIKPRP | -0.223 |
| RRIRFRPPRLPRPRPRPTKIPRP | 0.359 |
| RRIRFRPPRLPRPRPRPTLAPRP | 0.361 |
| RRIRFRPPRLPRPRPRPTLTPRP | 0.445 |
| RRIRFRPPRLPRPRPRPTMKPRP | -0.178 |
| RRIRFRPPRLPRPRPRPTMMPRP | -0.0556 |
| RRIRFRPPRLPRPRPRPTNKPRP | -0.301 |

| Sequence | shrunken log2 fold change |
| --- | --- |
| RRIRFRPPRLPRPRPRPTNPPRP | -0.0887 |
| RRIRFRPPRLPRPRPRPTNWPRP | 0.426 |
| RRIRFRPPRLPRPRPRPTQGPRP | 0.215 |
| RRIRFRPPRLPRPRPRPTQIPRP | 0.0911 |
| RRIRFRPPRLPRPRPRPTQNPRP | 0.541 |
| RRIRFRPPRLPRPRPRPTRWPRP | 0.117 |
| RRIRFRPPRLPRPRPRPTSIPRP | -0.296 |
| RRIRFRPPRLPRPRPRPTSMPRP | -0.00284 |
| RRIRFRPPRLPRPRPRPTTWPRP | 0.0564 |
| RRIRFRPPRLPRPRPRPTVWPRP | 0.19 |
| RRIRFRPPRLPRPRPRPTVYPRP | -0.307 |
| RRIRFRPPRLPRPRPRPTWKPRP | 0.32 |
| RRIRFRPPRLPRPRPRPVAVPRP | 0.105 |
| RRIRFRPPRLPRPRPRPVDLPRP | -0.102 |
| RRIRFRPPRLPRPRPRPVDQPRP | 0.0138 |
| RRIRFRPPRLPRPRPRPVDYPRP | -0.031 |
| RRIRFRPPRLPRPRPRPVELPRP | -0.00737 |
| RRIRFRPPRLPRPRPRPVFPPRP | -0.224 |
| RRIRFRPPRLPRPRPRPVFTPRP | -0.0271 |
| RRIRFRPPRLPRPRPRPVHDPRP | 0.0232 |
| RRIRFRPPRLPRPRPRPVHEPRP | -0.0618 |
| RRIRFRPPRLPRPRPRPVHMPRP | -0.0472 |
| RRIRFRPPRLPRPRPRPVKHPRP | -0.222 |
| RRIRFRPPRLPRPRPRPVLGPRP | -0.127 |
| RRIRFRPPRLPRPRPRPVNLPRP | 0.025 |

| Sequence | shrunken log2 fold change |
| --- | --- |
| RRIRFRPPRLPRPRPRPVNPPRP | -0.154 |
| RRIRFRPPRLPRPRPRPVPCPRP | 0.0335 |
| RRIRFRPPRLPRPRPRPVQNPRP | 0.0293 |
| RRIRFRPPRLPRPRPRPVQVPRP | -0.416 |
| RRIRFRPPRLPRPRPRPVSAPRP | 0.25 |
| RRIRFRPPRLPRPRPRPVSHPRP | -0.266 |
| RRIRFRPPRLPRPRPRPVTPPRP | 0.241 |
| RRIRFRPPRLPRPRPRPVVIPRP | 0.0715 |
| RRIRFRPPRLPRPRPRPVVRPRP | 0.153 |
| RRIRFRPPRLPRPRPRPVWGPRP | 0.311 |
| RRIRFRPPRLPRPRPRPVYGPRP | -0.286 |
| RRIRFRPPRLPRPRPRPWACPRP | -0.15 |
| RRIRFRPPRLPRPRPRPWAKPRP | -0.0227 |
| RRIRFRPPRLPRPRPRPWAPPRP | -0.013 |
| RRIRFRPPRLPRPRPRPWATPRP | 0.0109 |
| RRIRFRPPRLPRPRPRPWCQPRP | -0.0361 |
| RRIRFRPPRLPRPRPRPWEEPRP | -0.159 |
| RRIRFRPPRLPRPRPRPWFGPRP | -0.191 |
| RRIRFRPPRLPRPRPRPWGPPRP | -0.106 |
| RRIRFRPPRLPRPRPRPWGTPRP | -0.131 |
| RRIRFRPPRLPRPRPRPWHWPRP | 0.00852 |
| RRIRFRPPRLPRPRPRPWIIPRP | -0.00565 |
| RRIRFRPPRLPRPRPRPWILPRP | -0.144 |
| RRIRFRPPRLPRPRPRPWKQPRP | -0.469 |
| RRIRFRPPRLPRPRPRPWKTPRP | -0.0119 |

| Sequence | shrunken log2 fold change |
| --- | --- |
| RRIRFRPPRLPRPRPRPWMAPRP | -0.254 |
| RRIRFRPPRLPRPRPRPWMGPRP | -0.592 |
| RRIRFRPPRLPRPRPRPWMRPRP | 0.495 |
| RRIRFRPPRLPRPRPRPWNYPRP | -0.605 |
| RRIRFRPPRLPRPRPRPWPAPRP | -0.0371 |
| RRIRFRPPRLPRPRPRPWPQPRP | 0.127 |
| RRIRFRPPRLPRPRPRPWPWPRP | -0.00192 |
| RRIRFRPPRLPRPRPRPWQQPRP | -0.104 |
| RRIRFRPPRLPRPRPRPWRMPRP | -0.166 |
| RRIRFRPPRLPRPRPRPWRNPRP | -0.133 |
| RRIRFRPPRLPRPRPRPWRTPRP | -0.0041 |
| RRIRFRPPRLPRPRPRPWSTPRP | -0.0601 |
| RRIRFRPPRLPRPRPRPWVQPRP | -0.116 |
| RRIRFRPPRLPRPRPRPWVYPRP | -0.327 |
| RRIRFRPPRLPRPRPRPWWPPRP | 0.0712 |
| RRIRFRPPRLPRPRPRPYDNPRP | -0.775 |
| RRIRFRPPRLPRPRPRPYDTPRP | -0.106 |
| RRIRFRPPRLPRPRPRPYFCPRP | -1.05 |
| RRIRFRPPRLPRPRPRPYGAPRP | -0.193 |
| RRIRFRPPRLPRPRPRPYGKPRP | -0.514 |
| RRIRFRPPRLPRPRPRPYGTPRP | -0.81 |
| RRIRFRPPRLPRPRPRPYHPPRP | -0.58 |
| RRIRFRPPRLPRPRPRPYHRPRP | 0.045 |
| RRIRFRPPRLPRPRPRPYHYPRP | -0.521 |
| RRIRFRPPRLPRPRPRPYIWPRP | -0.425 |

| Sequence | shrunken log2 fold change |
| --- | --- |
| RRIRFRPPRLPRPRPRPYKLPRP | -0.438 |
| RRIRFRPPRLPRPRPRPYKMPRP | -0.62 |
| RRIRFRPPRLPRPRPRPYMIPRP | -0.59 |
| RRIRFRPPRLPRPRPRPYMPPRP | -1.09 |
| RRIRFRPPRLPRPRPRPYNIPRP | -0.181 |
| RRIRFRPPRLPRPRPRPYPNPRP | -0.152 |
| RRIRFRPPRLPRPRPRPYPSPRP | -0.018 |
| RRIRFRPPRLPRPRPRPYTAPRP | -1.07 |
| RRIRFRPPRLPRPRPRPYTPPRP | -1.28 |
| RRIRFRPPRLPRPRPRPYTQPRP | -0.152 |
| RRIRFRPPRLPRPRPRPYVLPRP | -0.332 |
| RRIRFRPPRLPRPRPRPYWIPRP | -1.07 |
| RRIRFRPPRLPRPRPRPYWQPRP | -0.9 |
| RRIRGRPPRLPRPRPRPAAFPRP | 0.724 |
| RRIRGRPPRLPRPRPRPAARPRP | 1.16 |
| RRIRGRPPRLPRPRPRPACIPRP | 0.666 |
| RRIRGRPPRLPRPRPRPADIPRP | -0.229 |
| RRIRGRPPRLPRPRPRPAGIPRP | 0.207 |
| RRIRGRPPRLPRPRPRPAGRPRP | 0.692 |
| RRIRGRPPRLPRPRPRPAHVPRP | 0.586 |
| RRIRGRPPRLPRPRPRPAKIPRP | 0.226 |
| RRIRGRPPRLPRPRPRPAKRPRP | 0.504 |
| RRIRGRPPRLPRPRPRPAMQPRP | 1.05 |
| RRIRGRPPRLPRPRPRPAMRPRP | 1.17 |
| RRIRGRPPRLPRPRPRPAPKPRP | 1.18 |

| Sequence | shrunken log2 fold change |
| --- | --- |
| RRIRGRPPRLPRPRPRPAQAPRP | 0.505 |
| RRIRGRPPRLPRPRPRPAQEPRP | 0.547 |
| RRIRGRPPRLPRPRPRPARKPRP | 0.222 |
| RRIRGRPPRLPRPRPRPARSPRP | 0.686 |
| RRIRGRPPRLPRPRPRPARWPRP | 0.998 |
| RRIRGRPPRLPRPRPRPASAPRP | 0.818 |
| RRIRGRPPRLPRPRPRPATSPRP | 0.914 |
| RRIRGRPPRLPRPRPRPATYPRP | 0.235 |
| RRIRGRPPRLPRPRPRPAWHPRP | 0.521 |
| RRIRGRPPRLPRPRPRPAWTPRP | 0.619 |
| RRIRGRPPRLPRPRPRPAYEPRP | 0.457 |
| RRIRGRPPRLPRPRPRPCAGPRP | 0.834 |
| RRIRGRPPRLPRPRPRPCAKPRP | 0.661 |
| RRIRGRPPRLPRPRPRPCCDPRP | 0.769 |
| RRIRGRPPRLPRPRPRPCCLPRP | 0.429 |
| RRIRGRPPRLPRPRPRPCEVPRP | 0.0371 |
| RRIRGRPPRLPRPRPRPCFPPRP | 0.309 |
| RRIRGRPPRLPRPRPRPCGCPRP | 1.09 |
| RRIRGRPPRLPRPRPRPCHPPRP | -0.119 |
| RRIRGRPPRLPRPRPRPCKRPRP | 0.0886 |
| RRIRGRPPRLPRPRPRPCLFPRP | 0.346 |
| RRIRGRPPRLPRPRPRPCLWPRP | 0.426 |
| RRIRGRPPRLPRPRPRPCMDPRP | 0.714 |
| RRIRGRPPRLPRPRPRPCMVPRP | 0.304 |
| RRIRGRPPRLPRPRPRPCQRPRP | 0.014 |
